In article PMC7589773:

Molecular target: AAV-DJ capsid viral protein (VP) subunit of the empty capsid (virus-like particle)
Test: cryo-EM structure; empty AAV-DJ capsids (VLPs) in 50 mM HEPES, 25 mM MgCl2, 25 mM NaCl, pH 7.4; I1 symmetry imposed; 1.56 Å resolution

Substance “AAV-DJ capsid viral protein (VP) subunit of the empty capsid (virus-like particle)” has a stoichiometry N of 60.
